Measurements reported in patent publication US20060257904, “Agglomeration protein cascades, compositions and methods regarding the same” (Q-RNA, Inc., published 2006).

B1: RQ11+12 (ssRNA)
RNA: GGGGUUUCCAACCGGAAUUUGAGGGAUGCCUAGGCAUCCCCCGUGCGUCCCUUUACGAGGGAUUGUCGACUCUAGUCGACGUCUGGGCGAAAAAUGUACGAGAGGACCUUUUCGGUACAGACGGUACCUGAGGGUAUGCCUAGGCAUCCCCCGCGCCGGUUUCGGACCUCCAGUGCGUGUUACCGCACUGUCGACCC
B2: MNV:AP1 (PrP-Amp) (ssRNA)
RNA: GGGUUCAUAGCCUAUUCGGCUUCGCGCAUGGGAAUUUGAGGGACGAUGGGGAAGUGGGAGCGCGUUUUAAAGGACCUUUUUCCCUCGCGUAGCUAGCUACGCGAGGUGACCCCCCGAAGGGGGGUGCCCC

Tests used:
[1] = biological target: hrPrP23-144 (N-terminal fragment) (Homo sapiens, UniProt P04156 P04156:23-144); test: filter; 20 nM protein, Buffer B plus tRNA; settings: tags: GST fusion removed by thrombin; label: 32P internal
[2] = biological target: hrPrP90-231 (C-terminal fragment) (Homo sapiens, UniProt P04156 P04156:90-231); test: filter; settings: tags: GST fusion removed by thrombin; label: 32P internal
Tau23 (0N3R) = Tau23 (0N3R) (UniProt P10636-2 P10636-2:1-352); test: EMSA; 125 ng RNA, 1 ug Tau, protection buffer pH 7.4; settings: tags: 6-His; label: 32P internal
Tau441 (2N4R) = Tau441 (2N4R) (UniProt P10636-8 P10636-8:1-441); test: EMSA; 125 ng RNA, 1 ug Tau; affinity differs from Tau23; settings: tags: no His tag; rPeptide; label: 32P internal
[3] = biological target: T1, hrPrP23-231 (pEHPrP23-231) (Homo sapiens, UniProt P04156 P04156:23-231); test: EMSA; settings: tags: untagged; E. coli BL21(DE3) pLysS; label: 32P internal
lysozyme = lysozyme (UniProt P00698 P00698:19-147); test: filter; background; 20 nM protein, 2 nM RNA, 10 ng/ul tRNA; settings: label: 32P internal
BSA = BSA (UniProt P02769 P02769:25-607); test: as above; settings: tags: Ambion; label: 32P internal
[4] = biological target: T1, hrPrP23-231 (pEHPrP23-231); test: EMSA; 55 nM hrPrP, 10% BCS plus tRNA, urea gel; settings: tags: untagged; E. coli BL21(DE3) pLysS; label: 32P internal

Binder | binding result [1] | binding result [2] | binding result (Tau23 (0N3R)) | binding result (Tau441 (2N4R)) | binding result [3] | binding result (lysozyme) | binding result (BSA) | binding result [4]
B1 | binds | no binding | binds | binds | binds | no binding | no binding | –
B2 | – | – | – | – | – | – | – | binds
